For assay [1], the target named is T1, recombinant human CD19 (labeled) (human, UniProt P15391 20-291, limits assumed).
T1 construct: Fluorescently labeled antigen titrated on yeast; The sorting steps used CD19-Fc/Anti-Hu-Fc, so the labeled antigen may be the Fc fusion; also called labeled CD19; recombinant human CD19 protein
T1 sequence (looked up): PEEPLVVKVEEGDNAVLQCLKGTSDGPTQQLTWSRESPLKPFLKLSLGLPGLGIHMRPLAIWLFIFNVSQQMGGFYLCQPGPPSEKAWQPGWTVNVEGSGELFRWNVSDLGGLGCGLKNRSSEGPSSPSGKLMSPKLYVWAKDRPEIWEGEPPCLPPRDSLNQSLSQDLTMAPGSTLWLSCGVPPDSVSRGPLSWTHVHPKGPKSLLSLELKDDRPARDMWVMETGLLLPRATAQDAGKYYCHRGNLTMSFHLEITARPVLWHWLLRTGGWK
The assay can be described thus: flow cytometry of yeast-displayed scFv with decreasing amounts of labeled CD19. How it is done: To increase the affinity of m19217, a yeast-display m19217 mutant scFv library was created by using error-prone PCR to create random point mutations in scFv gene sequences. After electroporation, the resulting mutant library was then grown overnight at 30° C. for 16 hours in SDCAA medium and then switched into SGCAA medium at 30° C. for another 16 hours. The mutant library was then sorted through MACS (immunomagentic column, Miltenyi Biotec) with CD19-Fc as the capture antigen to downsize the library and to increase the population of mutants that could bind to CD19-Fc. The strongest binders were then selected by double staining the pools with Anti-c-Myc-Alexa 488 and CD19-Fc/Anti-Hu-Fc and selecting for the binders that had the highest binding affinities as well as c-Myc expression levels. This process was then repeated two more times, until flow cytometry of yeast particles with fluorescently tagged antigen yielded average binding affinities of the mutant pools that were increased over the starting construct. Binding affinities were estimated by flow cytometry of yeast pools using decreasing amounts of labeled CD19.

Assay [2] has as its target T2, TSLPR-Fc peptide (R&D systems) (UniProt Q9HC73 25-231).
T2 construct: Bought reagent (R&D systems); also called TSLPR-Fc reagent; not shown: Fc part of the bought reagent
T2 sequence (looked up): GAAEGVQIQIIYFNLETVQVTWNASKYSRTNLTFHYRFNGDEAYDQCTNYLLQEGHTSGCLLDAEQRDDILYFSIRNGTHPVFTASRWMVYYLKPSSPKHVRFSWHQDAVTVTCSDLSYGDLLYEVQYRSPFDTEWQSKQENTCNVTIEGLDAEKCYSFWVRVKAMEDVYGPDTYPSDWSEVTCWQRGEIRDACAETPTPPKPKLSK
The assay can be described thus: flow cytometry, CAR T cells stained with TSLPR-Fc then anti-Fc AF647. How it is done:
Flow cytometric analysis was performed to detect the CAR molecule surface expression. Half million of harvested primary T cells were washed and stained with cold AutoMACS buffer supplemented with 0.5% bovine serum albumin (Miltenyi Biotec, Bergisch Gladbach, Germany), and resuspended in 200 ul Running Buffer before acquired by MACSQuant®10 Analyzer (Miltenyi Biotec Bergisch Gladbach, Germany). For CAR surface expression, TSLPR Fc, CD19Fc and CD22Fc peptide (R&D systems, Minneapolis, Minn.) were used followed anti Fc-AF647 (Jackson ImmunoResearch, West Grove, Pa.). T cell subtypes was further identified with anti-CD4 antibody conjugated to VioBlue fluorophore (Miltenyi Biotec Bergisch Gladbach, Germany). Dead cells in all studies were excluded by 7AAD staining (BD Biosciences, San Jose, Calif.). Flow data were analyzed with MACSQuantify software.
Specific detection of each scFv domain within the CAR structure was facilitated by CAR T cell staining with TSLPR-Fc peptide, or CD19-Fc peptide, followed by a secondary staining with anti-Fc AF647-labeled reagent, and fluorescence was detected in the APC channel. In CAR construct D0101, in which CD19 scFv was membrane-proximal and the TSLPR scFv was membrane-distal, the TSLPR scFv was detected at 44% of the transduced cells, and CD19 scFv was detected at 31%. In CAR construct D0102 with the reverse binder orientation (i.e. the TSLPR scFv membrane-proximal, and CD19 scFv membrane-distal), the detection levels were 85% and 75% for scFv TSLPR and CD19, respectively (FIG. 2).
For orientation: In flow cytometry, cells or beads pass a laser one at a time.

Changes are numbered by the printed parent chain. Bounds are passed on as bounds.

The results in this text go back to patent US20210379110A1 (LENTIGEN TECHNOLOGY, published 2021).

B1: human anti-CD19 ScFv binder M19217 (founder clone) (scFv)
chain: EVQLVQSGAEVKKPGASVKVSCKASGYTFTSYYMHWVRQAPGQGLEWMGIINPSGGSTSYAQKFQGRVTMTRDTSTSTVYMELSSLRSEDTAVYYCARSDRGITATDAFDIWGQGTMVTVSSGGGGSGGGGSGGGGSQSVLTQPPSVSVAPGQTAKITCGGSDIGNKNVHWYQQKPGQAPVLVVYDDYDRPSGIPERFSGSNSGDAATLTISTVEVGDEADYFCQVWDSSGDPYWVFGGGTQLTVLG
Usually EC50 stands for the concentration that produces a half-maximal response. For the molecule B1, the EC50 in assay [1] was 0.5 µg/mL.

B2: human anti-CD19 ScFv binder M19217-38 (scFv)
chain: B1 chain with K13R, Q43R, I50L, K63E, T74M, T104S, T154M, D189N, S229G, V245D
Take B2: the EC50 in assay [1] is below 0.01 µg/mL.

B3: human anti-CD19 ScFv binder M19217-7 (scFv)
chain: B1 chain with K12N, I50M, A105S, V149L, D189N, A206S, S229G
As to B3, in assay [1], the EC50 was below 0.01 µg/mL.

B4: human anti-CD19 ScFv binder M19217-23 (scFv)
chain: B1 chain with S31G, M48I, I50L, A61E, T69A, N166D, S229G, S230I
For B4, the concentration for a half-maximal effect (EC50) in assay [1] is below 0.01 µg/mL.

B5: human anti-CD19 ScFv binder M19217-2 (scFv)
chain: B1 chain with L45F, I50L, G56S, S85N, S148P, T158I, S229G
Regarding B5, the EC50 in assay [1] is below 0.01 µg/mL.

B6: human anti-CD19 ScFv binder M19217-29 (scFv)
chain: B1 chain with I50M, V169A, P195S, S229G, Y234F
As to B6, the 50% effective concentration (EC50) in assay [1] was below 0.01 µg/mL.

B7: human anti-CD19 ScFv binder M19217-40 (scFv)
chain: B1 chain with K13R, E46V, I50L, I157T, F223V, S229G
Take B7: the EC50 in assay [1] is below 0.01 µg/mL.

B8: D0101 (EF-1a-TSLPR-CD19 (19217_1) CD8 BBz) (other)
chain: QVTLKESGPGILKPSQTLSLTCSFSGFSLSTSGMGVGWIRQPSGKGLEWLAHIWWDDDKYYNPSLKSQLTISKDTSRNQVFLKITSVDTADTATYYCSRRPRGTMDAMDYWGQGTSVTVSSGGGGSGGGGSGGGGSDIVMTQAASSLSASLGDRVTISCRASQDISKYLNWYQQKPDGTVKLLIYYTSRLHSGVPSRFSGSGSGTDYSLTIRNLEQEDIATYFCQQVYTLPWTFGGGTKLEIKGGGGSGGGGSGGGGSGGGGSGGGGSEVQLVQSGAEVKKPGASVKVSCKASGYTFTSYYMHWVRQAPGQGLEWMGLINPSGGSTSYAQKFQGRVTMTRDTSTSTVYMELSSLRSEDTAVYYCARSDRGITATDAFDIWGQGTMVTVSSGGGGSGGGGSGGGGSQSVLTQPPSVSVAPGRMAKITCGGSDIGNKNVHWYQQKPGQAPVLVVYDDYDRPSGIPERFSGSNSGDAATLTISTVEVGDEADYFCQVWDGSGDPYWMFGGGTQLTVLGAAATTTPAPRPPTPAPTIASQPLSLRPEACRPAAGGAVHTRGLDFACDIYIWAPLAGTCGVLLLSLVITLYCKRGRKKLLYIFKQPFMRPVQTTQEEDGCSCRFPEEEEGGCELRVKFSRSADAPAYQQGQNQLYNELNLGRREEYDVLDKRRGRDPEMGGKPRRKNPQEGLYNELQKDKMAEAYSEIGMKGERRRGKGHDGLYQGLSTATKDTYDALHMQALPPR
notes: also called CAR TSLPR-19 BBz; tandem D0101 TSLPR×CD19 CAR
For B8, the “percent of transduced T cells stained by antigen-Fc” value in assay [2] was 44%.

B9: human anti-CD19 ScFv binder M19217-1 (scFv, V domains shown)
VH: EVQLVQSGAEVKKPGASVKVSCKASGYTFTSYYMHWVRQAPGQGLEWMGLINPSGGSTSYAQKFQGRVTMTRDTSTSTVYMELSSLRSEDTAVYYCARSDRGITATDAFDIWGQGTMVTVSS
VL: QSVLTQPPSVSVAPGRMAKITCGGSDIGNKNVHWYQQKPGQAPVLVVYDDYDRPSGIPERFSGSNSGDAATLTISTVEVGDEADYFCQVWDGSGDPYWMFGGGTQLTVLG
notes: also called scFv of LTG2065
Turning to B9, the concentration for a half-maximal effect (EC50) in assay [1] is below 0.01 µg/mL.

B10: D0102 (EF-1a-CD19 (19217_1)-TSLPR CD8 BBz) (other)
chain: EVQLVQSGAEVKKPGASVKVSCKASGYTFTSYYMHWVRQAPGQGLEWMGLINPSGGSTSYAQKFQGRVTMTRDTSTSTVYMELSSLRSEDTAVYYCARSDRGITATDAFDIWGQGTMVTVSSGGGGSGGGGSGGGGSQSVLTQPPSVSVAPGRMAKITCGGSDIGNKNVHWYQQKPGQAPVLVVYDDYDRPSGIPERFSGSNSGDAATLTISTVEVGDEADYFCQVWDGSGDPYWMFGGGTQLTVLGGGGGSGGGGSGGGGSGGGGSGGGGSQVTLKESGPGILKPSQTLSLTCSFSGFSLSTSGMGVGWIRQPSGKGLEWLAHIWWDDDKYYNPSLKSQLTISKDTSRNQVFLKITSVDTADTATYYCSRRPRGTMDAMDYWGQGTSVTVSSGGGGSGGGGSGGGGSDIVMTQAASSLSASLGDRVTISCRASQDISKYLNWYQQKPDGTVKLLIYYTSRLHSGVPSRFSGSGSGTDYSLTIRNLEQEDIATYFCQQVYTLPWTFGGGTKLEIKAAATTTPAPRPPTPAPTIASQPLSLRPEACRPAAGGAVHTRGLDFACDIYIWAPLAGTCGVLLLSLVITLYCKRGRKKLLYIFKQPFMRPVQTTQEEDGCSCRFPEEEEGGCELRVKFSRSADAPAYQQGQNQLYNELNLGRREEYDVLDKRRGRDPEMGGKPRRKNPQEGLYNELQKDKMAEAYSEIGMKGERRRGKGHDGLYQGLSTATKDTYDALHMQALPPR
notes: also called CAR 19-TSLPR BBz; tandem D0102 CD19×TSLPR CAR
In the case of B10, the “percent of transduced T cells stained by antigen-Fc” value in assay [2] amounted to 85%.
